Data on 2 molecules can be found in publication doi:10.1101/2020.04.11.018549v1 (biorxiv, 2020).

In one data set the target is T1, RjoADP-GlcPPase (Rhodococcus jostii, UniProt Q0S3Y4).
T1 sequence (Q0S3Y4 1-404): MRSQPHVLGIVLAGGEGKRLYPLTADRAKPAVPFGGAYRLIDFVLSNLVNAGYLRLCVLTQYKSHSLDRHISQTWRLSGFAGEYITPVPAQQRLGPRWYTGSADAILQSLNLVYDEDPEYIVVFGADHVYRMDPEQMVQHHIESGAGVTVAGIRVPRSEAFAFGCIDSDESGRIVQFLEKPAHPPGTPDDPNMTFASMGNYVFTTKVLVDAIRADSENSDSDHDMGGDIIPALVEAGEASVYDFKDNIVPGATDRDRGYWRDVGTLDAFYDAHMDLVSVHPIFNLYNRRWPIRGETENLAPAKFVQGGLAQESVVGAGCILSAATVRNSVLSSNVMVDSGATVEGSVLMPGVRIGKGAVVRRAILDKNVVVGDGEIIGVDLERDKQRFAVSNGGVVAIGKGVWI
The data set is described as follows: Pi release. In kind it is biochemical. To be noted: read-out: S0.5; no effector; ATP, 10 mM MgCl2, pH 8.0, 37°C.

Substrate in data set [1]: Nc1ncnc2c1ncn2[C@@H]1O[C@H](COP(=O)(O)OP(=O)(O)OP(=O)(O)O)[C@@H](O)[C@H]1O
As to the kind of experiment: purified protein. To be noted: no effector, Glc-1P, 10 mM MgCl2, pH 8.0, 37°C.

Substrate in data set [2]: O=P(O)(O)O[C@H]1O[C@H](CO)[C@@H](O)[C@H](O)[C@H]1O
The data set is described as follows: purified protein. To be noted: no effector, ATP, 10 mM MgCl2, pH 8.0, 37°C.

Consider `O=P(O)(O)O[C@H]1O[C@H](CO)[C@@H](O)[C@H](O)[C@H]1O` [Glc-1P], for which, at RjoADP-GlcPPase, the Km came out at 1800 µM.

B1: RfaADP-GlcPPase (Rhodococcoides fascians) (protein)
chain: MRTQPHVLGIVLAGGEGKRLYPMTADRAKPAVPFGGAYRLIDFVLSNLVNAGYLRLCVLTQYKSHSLDRHISQTWRLSGFAGEYITPVPAQQRLGPRWYTGSADAIFQSLNLVYDEDPEYIVVFGADHVYRMDPEQMVQQHIDSGAGVTVAGIRVPRSEAFAFGCIDSDENGKITQFLEKPAQPPGTPDDPDVTYASMGNYVFTTKVLVDAIKADSENSDSDHDMGGDIIPALVEAGVASVYDFNDNVVPGATERDRGYWRDVGTIDAFYDAHMDLVSVHPIFNLYNRRWPIRGSAENLPPAKFVQGGLAQESVVGAGCILSAATVRNSVLSSNVMIDSGATVEGSVLMPGVRIGKGAVVRHAILDKNVVVGDGEIVGVDLERDRERFNVSAGGVVSVGKGVWI
Broadly, the kcat is the number of substrate molecules converted per active site and unit of time at saturation. B1: the K0.5 in the data set “purified protein [1]” is listed as 0.58 mM. In “purified protein [2]”, the K0.5 came out at 1.17 ± 0.08 mM and the kcat is 8.8 s⁻¹.
